Measured values reported in publication PMC8517388.
Like-named read-outs stand apart in the source and are kept apart here.

What was measured:
[1] = molecular target: TROP-2 ectodomain expressed in HEK-293T cells (TROP-2-ECD-293T) (human) (UniProt P09758); test: crystal structure
[2] = molecular target: TROP-2 ectodomain expressed in HEK-293T cells (TROP-2-ECD-293T) (human) (UniProt P09758); test: crystal structure; remark: listed apart in the source
[3] = molecular target: TROP-2 ectodomain expressed in insect cells (TROP-2-ECD-insect) (human) (UniProt P09758); test: crystal structure
[4] = molecular target: TROP-2 ectodomain expressed in insect cells (TROP-2-ECD-insect) (human) (UniProt P09758); test: ITC
[5] = molecular target: TROP-2 ectodomain expressed in insect cells (TROP-2-ECD-insect) (human) (UniProt P09758); test: crystal structure; remark: listed apart in the source
[6] = BS3 cross-linking, SDS-PAGE; conditions: glycan changed form; control: TROP-2-ECD from HEK-293T cells

TROP-2 ectodomain expressed in HEK-293T cells (TROP-2-ECD-293T) (from UniProt P09758 27-274) (domain or fragment)
stoichiometry N [1]: 4 | stoichiometry N [2]: 2

TROP-2 ectodomain expressed in insect cells (TROP-2-ECD-insect) (from UniProt P09758 27-274) (domain or fragment)
stoichiometry N [3]: 2 | Kd [4]: 402 µM | dH [4]: 9.14 kcal/mol | stoichiometry N [5]: 4

B1: TROP-2 (trophoblast cell surface antigen 2) ectodomain, TROP-2-ECD: expression in insect cells (protein)
parent chain: MARGPGLAPPPLRLPLLLLVLAAVTGHTAAQDNCTCPTNKMTVCSPDGPGGRCQCRALGSGMAVDCSTLTSKCLLLKARMSAPKNARTLVRPSEHALVDNDGLYDPDCDPEGRFKARQCNQTSVCWCVNSVGVRRTDKGDLSLRCDELVRTHHILIDLRHRPTAGAFNHSDLDAELRRLFRERYRLHPKFVAAVHYEQPTIQIELRQNTSQKAAGDVDIGDAAYYFERDIKGESLFQGRGGLDLRVRGEPLQVERTLIYYLDEIPPKFSMKRLTAGLIAVIVVVVVALVAGMAVLVITNRRKSGKYKKVEIKELGELRKEPSL
oligomerisation [6]: no change
